Values quoted from earlier work, collected in publication PMC4364296.
Several values for one entry are separate records, joined by “and”; a condition that tells them apart may be missing. Identical values can stand only once. Like-named read-outs stand apart in the source and are kept apart here.

How the values were obtained:
ZipA (Escherichia coli) [1] = target: ZipA (Escherichia coli) (UniProt P77173)
ZipA (Escherichia coli) [2] = target: ZipA (Escherichia coli) (UniProt P77173); remark: listed apart in the source

Chain of FtsZ (P0A9A6 whole entry): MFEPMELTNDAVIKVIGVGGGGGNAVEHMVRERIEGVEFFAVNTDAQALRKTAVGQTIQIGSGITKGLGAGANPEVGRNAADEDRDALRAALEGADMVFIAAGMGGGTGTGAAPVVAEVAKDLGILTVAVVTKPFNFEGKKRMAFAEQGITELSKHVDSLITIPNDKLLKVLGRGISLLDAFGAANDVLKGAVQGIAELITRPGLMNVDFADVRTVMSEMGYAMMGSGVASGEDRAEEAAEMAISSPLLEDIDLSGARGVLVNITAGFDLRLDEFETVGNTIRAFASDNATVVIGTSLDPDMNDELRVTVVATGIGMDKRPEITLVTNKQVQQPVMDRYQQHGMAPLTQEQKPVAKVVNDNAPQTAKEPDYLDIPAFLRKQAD

FtsZ (from UniProt P0A9A6)
Kd (ZipA (Escherichia coli) [1]): 40 µM

FtsZ CCTP peptide CCTP (from UniProt P0A9A6)
Kd (ZipA (Escherichia coli) [2]): 35 µM and 21.6 µM
